Laboratory results taken from US20220348659A1 (TWIST BIOSCIENCE, published 2022).

Tests used:
[1] = target: CD3 on human CD8+ T cells; test: flow cytometry titration, MFI against [IgG] nM; cells not named on this panel, the value and the curve are those of the CD8+ T-Cell curve of FIG. 12F
[2] = target: CD3 on human CD8+ T cells; test: flow cytometry titration on CD8+ T cells, MFI against [IgG] nM
CD3 on Jurkat cells = test: flow cytometry titration on Jurkat cells, MFI against [IgG] nM
[3] = target: CD3 on human CD8+ T cells; test: flow cytometry titration, RL1-H MFI against [IgG] nM; cells not named on this panel, the points are those of the CD8+ T-Cell curves of FIGS. 12E-12G
human CD3 epsilon [4] = target: T1, human CD3 epsilon (human, UniProt P07766 23-126, limits assumed); test: sensorgrams with fits, Response (RLU) against Time (s); instrument not named; species not printed on the panel: human by the order of the panels (11I-11K human, 11L-11N cyno, after the text's 67 nM and 107 nM)
T1 construct: Used as a soluble protein target in panning; the construct is not described; also called hCD3; hCD3 epsilon
T1 sequence (P07766 23-126 limits assumed): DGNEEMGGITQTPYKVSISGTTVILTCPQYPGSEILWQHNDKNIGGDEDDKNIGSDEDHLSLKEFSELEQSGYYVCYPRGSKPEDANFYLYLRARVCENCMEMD

[5] = target: cyno CD3 epsilon (cyno (cynomolgus monkey)) (UniProt Q95LI5); test: sensorgrams with fits, Response (RLU) against Time (s); instrument not named; species not printed on the panel: cyno by the order of the panels (11I-11K human, 11L-11N cyno, after the text's 67 nM and 107 nM)
human CD3 epsilon [6] = target: T1, human CD3 epsilon; test: flow cytometry on Expi293 cells overexpressing hCD3e, antibody at 100 nM; bar = MFI ratio (OE/parent), 1 = parent cells
cyno CD3 epsilon [7] = target: T2, cyno CD3 epsilon (cyno (cynomolgus monkey), UniProt Q95LI5 22-117, limits assumed); test: flow cytometry on Expi293 cells overexpressing cynoCD3e, antibody at 100 nM; bar = MFI ratio (OE/parent)
T2 construct: Used as a soluble protein target in panning; the construct is not described; also called cCD3; cCD3 epsilon
T2 sequence (looked up): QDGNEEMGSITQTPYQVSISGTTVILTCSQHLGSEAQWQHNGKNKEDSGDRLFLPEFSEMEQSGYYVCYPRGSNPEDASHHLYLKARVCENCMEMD

cyno CD3 epsilon [8] = target: T2, cyno CD3 epsilon; test: sensorgrams with fits, Response (RLU) against Time (s); instrument not named; panel shaded grey; species not printed on the panel: cyno by the order of the panels (11I-11K human, 11L-11N cyno, after the text's 67 nM and 107 nM)
human CD3 epsilon [9] = target: T1, human CD3 epsilon; test: method not stated; human CD3 epsilon

Chain of CD3 on human CD8+ T cells (chain, as listed by the source limits assumed): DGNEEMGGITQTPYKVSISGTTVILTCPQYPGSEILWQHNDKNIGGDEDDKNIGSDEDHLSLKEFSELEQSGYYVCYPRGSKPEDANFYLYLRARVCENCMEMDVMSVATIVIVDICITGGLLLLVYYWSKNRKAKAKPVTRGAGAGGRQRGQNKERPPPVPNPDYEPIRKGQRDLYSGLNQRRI

Molecule | binding result (human CD3 epsilon [6]) | binding result (cyno CD3 epsilon [7]) | further results
R&D MAB100 (antibody) | – | – | EC50 [1]: 3.05 nM; EC50 [2]: 3.05 nM; EC50 (CD3 on Jurkat cells): 0.537 nM; EC50 (read off the curve) [3]: 3 nM
muSP34 (antibody) | – | – | Kd (human CD3 epsilon [4]): < 0.0019 nM; Kd [5]: 38 nM
CD3-252-5 (VHH, also called CD3-252-005) VHH: EVQLVESGGGLVQPGGSLRLSCAASGRISNINIMGWFRQAPGKEREFVAAISWNSGTTRYADSVKGRFTISADNSKNTAYLQMNSLKPEDTAVYYCASQGPGLYGSGSYLRYWGQGTLVTVSS | binds | no binding (tested: 100 nM) | –
CD3-252-22 (VHH, also called CD3-252-022) VHH: EVQLVESGGGLVQPGGSLRLSCAASGNIFTRHIMGWFRQAPGKEREFVAAITNGGSTKYADSVKGRFTISADNSKNTAYLQMNSLKPEDTAVYYCARQDYYDSSGHIRYWGQGTLVTVSS | binds | – | –
CD3-56-11 (antibody, V domains shown) VH: EVQLLESGGGLVQPGGSLRLSCAASGFRFSTYAMNWVRQAPGKGLEWVSGISGSGGSKYHADSVKGRFTISRDNSKNTLYLQMNSLRAEDTAVYYCARDSLTTRGYYYYMDVWGQGTLVTVSS VL: DIQMTQSQSSLSASVGDRVTITCRASQSIRTSLNWYQQKPGKAPKLLIYAASRLQSGVPSRFSGSGSGTDFTLTISSLQPEDFATYYCQQSYSTLYSFGGGTKVEIK | – | – | Kd (cyno CD3 epsilon [8]): 162000 nM; Kd (human CD3 epsilon [4]): 130 nM
CD3-56-05 (antibody, V domains shown, the text speaks of CD3 epsilon IgGs from a Fab library on the DP47 framework; also called CD3-56-5; CD-3-56-5) VH: EVQLLESGGGLVQPGGSLRLSCAASGFTFSSYAMNWVRQAPGKGLEWVSAVSGSGGRTYYADSVKGRFTISRDNSKNTLYLQMNSLRAEDTAVYYCARERATTLDYWGQGTLVTVSS VL: DIQMTQSPSSLSASVGDRVTITCRASQTIYSHLNWYQQKPGKAPKLLIYVASRLQSGVPSRFSGSGSGTDFTLTISSLQPEDFATYYCQQSFSTSWTFGGGTKVEIK | – | – | Kd (human CD3 epsilon [9]): 67 nM
CD3-252-29 (VHH, also called CD3-252-029) VHH: EVQLVESGGGLVQPGGSLRLSCAASGTTFRINVMGWFRQAPGKEREFVAAITSSGSSTLYADSVKGRFTISADNSKNTAYLQMNSLKPEDTAVYYCARGGGYHRLWGQGTLVTVSS | binds | no binding (tested: 100 nM) | –
CD3-252-24 (VHH, also called CD3-252-024) VHH: EVQLVESGGGLVQPGGSLRLSCAASGITFKRYVMGWFRQAPGKEREFVAAITNGGSTKYADSVKGRFTISADNSKNTAYLQMNSLKPEDTAVYYCARDLSAGPGKAVYWGQGTLVTVSS | binds | no binding (tested: 100 nM) | –
CD3-252-10 (VHH, also called CD3-252-010) VHH: EVQLVESGGGLVQPGGSLRLSCAASGRSLYDRAYVMGWFRQAPGKEREFVAAINRSGSALYADSVKGRFTISADNSKNTAYLQMNSLKPEDTAVYYCAAKAVTSRDHEWGQGTLVTVSS | binds | no binding (tested: 100 nM) | –
